Test results reported in patent US5882914, “Nucleic acids encoding the hypoxia inducible factor-1” (The Johns Hopkins University School of Medicine).

Columns and labels:
[1] = target: T1, HIF-1 (HIF-1alpha/HIF-1beta ARNT heterodimer) (Homo sapiens, UniProt Q16665;P27540 Q16665:1-826,P27540:2-789); experiment: EMSA; buffer Z-100; also UV cross-linking of both subunits, competed by W18 not M18; settings: tags: none; 5' GATC overhang
Procedure: (§1) Figure 3A: FIG. 3A is an autoradiograph showing gel shift assay analysis of column fractions for HIF-1 DNA binding activity. Nuclear extracts were fractionated by DEAE-Sepharose chromatography, and fractions containing HIF-1 activity were applied to a W18 DNA affinity column. 5 ug of protein were incubated with 0.1 ug of calf thymus DNA for gel shift analysis of crude nuclear extract (Crude NE, lane 1) and HIF-1 active fractions from DEAE-Sepharose columns (DEAE, lane 2). For fractions from the W18 column (lanes 3–13), 1 ul aliquots were incubated with 5 ng of calf thymus DNA. The positions of the two HIF-1 bands, constitutive activity (C), nonspecific activity (NS), and free probe (F) are indicated. FT, flowthrough, 0.25M, 0.5M, 1M, and 2M are fractions eluted with indicated concentration of KCl in buffer Z. Figure 3B: FIG. 3B is an autoradiograph showing sequence-specific DNA binding of the partially purified fractions described in the legend to FIG. 3A. 5 ug aliquots of fractions from the DEAE-Sepharose column were incubated with W18 probe in the presence of no competitor (lane 1), 10-fold (lanes 2 and 5), 50-fold (lanes 3 and 6), or 250-fold (lanes 4 and 7) molar excess of unlabeled W18 (W, lanes 2–4) or M18 (M, lanes 5–7) oligonucleotide.
UV Cross-Linking Analysis. […]

[2] = target: T1, HIF-1 (HIF-1alpha/HIF-1beta ARNT …); experiment: EMSA; similar to W18; competed by W18 not M18; settings: tags: none; 5' GATC overhang added
Procedure: (§2) The sense strand sequence of the W18 and M18 oligonucleotides was as given above. HIF-1 was partially purified from 50 liters of CoCl_2-treated HeLa cells by crude nuclear extract preparation, DEAE-Sepharose chromatography, MonoQ fast protein liquid chromatography, and DNA affinity chromatography. Incubations with crude nuclear extracts and partially purified HIF-I contained 100 and 1 ng of denatured calf thymus DNA, respectively. Competition experiments were performed with 5 ng of unlabeled W18 or MI8 oligonucleotide.
EMSA was also performed with a preparation of HIF-1 from CoCl_2-treated HeLa cells that was purified approximately 600-fold by DEAE-cellulose, MonoQ, and DNA affinity chromatography. Each probe bound HIF-1 in a manner that was qualitatively and quantitatively similar to the complex formed with W18. The binding of HIF-1 to these probes was sequence-specific as it could be competed by an excess of unlabeled W18 but not by mutant oligonucleotide M18, containing a 3-nucleotide substitution previously shown to eliminate HIF-1 binding and hypoxia-inducible enhancer function. Similar results were obtained when competition experiments involving W18 and M18 were performed with crude nuclear extract from hypoxic Hep3B cells. […] Given the biased method of ascertainment, it is possible that HIF-1 may recognize other sequences not represented by this consensus. In addition to the 6 HIF-1 sites from glycolytic genes, the sequence 5'-CACGTGCT-3' (SEQ ID NO:34) was also present in the hENO1 5'-FS at -786 to -793 (Gialongo et al. (1990) Eur. J. Biochem. 190:567–573) but was not tested for HIF-1 binding. Thus, a total of 7 probable HIF-1 sites were identified in 20.7 kb of nucleotide sequence reported to GenBank for these 5 glycolytic genes. In contrast, no sequences matching the consensus HIF-1 site were identified on either DNA strand within a total of 43.5 kb, comprising the nucleotide sequences of 5 randomly chosen genes, AFP, BUP4, CREB, DHFR, and EPOR (Gibbs et al. (1987) Biochemistry 26;1332–1343; Kurihara et al. (1993) Biochem.

[3] = target: T1, HIF-1 (HIF-1alpha/HIF-1beta ARNT …); experiment: EMSA; similar to W18; competed by W18 not M18; printed CADGTGCG in table; settings: tags: none; 5' GATC overhang added
Text: as §2, with “Double-stranded oligonucleotides were synthesized according to the sequences shown in Table 2 except that each oligonucleotide contained at its 5'-end the sequence 5'-GATC-3', which formed a single-stranded 5' overhang when complementary oligonucleotides were annealed. The” for “The”
(§3) EMSA was also performed with a preparation of HIF-1 from CoCl_2-treated HeLa cells that was purified approximately 600-fold by DEAE-cellulose, MonoQ, and DNA affinity chromatography. Each probe bound HIF-1 in a manner that was qualitatively and quantitatively similar to the complex formed with W18. The binding of HIF-1 to these probes was sequence-specific as it could be competed by an excess of unlabeled W18 but not by mutant oligonucleotide M18, containing a 3-nucleotide substitution previously shown to eliminate HIF-1 binding and hypoxia-inducible enhancer function. […]

[4] = target: T1, HIF-1 (HIF-1alpha/HIF-1beta ARNT …); experiment: EMSA; listed among 8 oligonucleotides shown to bind HIF-1 specifically; settings: tags: none; 5' GATC overhang added
Text: as §2, with “Double-stranded oligonucleotides were synthesized according to the sequences shown in Table 2 except that each oligonucleotide contained at its 5'-end the sequence 5'-GATC-3', which formed a single-stranded 5' overhang when complementary oligonucleotides were annealed. The” for “The”
as §3

[5] = target: T1, HIF-1 (HIF-1alpha/HIF-1beta ARNT …); experiment: competition; 250-fold excess M18 does not compete; HIF-1 in M18 column flowthrough; settings: tags: none; 5' GATC overhang
Procedure: as §1

T1 sequence (Q16665 whole entry, chain 1 of 2): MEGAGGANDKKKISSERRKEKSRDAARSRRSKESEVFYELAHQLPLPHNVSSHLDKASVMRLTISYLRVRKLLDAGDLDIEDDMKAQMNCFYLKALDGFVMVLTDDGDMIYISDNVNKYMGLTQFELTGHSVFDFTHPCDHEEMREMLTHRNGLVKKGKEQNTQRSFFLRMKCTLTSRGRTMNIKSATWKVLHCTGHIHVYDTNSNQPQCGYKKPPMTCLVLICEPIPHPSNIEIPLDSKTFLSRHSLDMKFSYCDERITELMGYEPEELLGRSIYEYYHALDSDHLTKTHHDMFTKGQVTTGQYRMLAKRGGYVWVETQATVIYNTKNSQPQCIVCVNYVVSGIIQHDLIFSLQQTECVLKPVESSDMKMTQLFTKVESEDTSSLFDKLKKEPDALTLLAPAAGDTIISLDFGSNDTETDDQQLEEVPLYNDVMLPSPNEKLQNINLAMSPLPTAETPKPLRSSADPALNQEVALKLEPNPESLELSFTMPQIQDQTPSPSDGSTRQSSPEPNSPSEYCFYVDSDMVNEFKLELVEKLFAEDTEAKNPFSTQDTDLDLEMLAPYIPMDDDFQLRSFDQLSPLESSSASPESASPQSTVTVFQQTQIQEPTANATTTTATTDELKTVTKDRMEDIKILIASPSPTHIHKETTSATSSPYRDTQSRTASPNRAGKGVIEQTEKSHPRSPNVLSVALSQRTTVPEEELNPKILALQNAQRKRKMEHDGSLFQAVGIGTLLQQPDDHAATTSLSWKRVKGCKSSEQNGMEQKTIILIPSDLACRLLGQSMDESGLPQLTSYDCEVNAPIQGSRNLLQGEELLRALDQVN
T1 sequence (P27540 2-789, chain 2 of 2): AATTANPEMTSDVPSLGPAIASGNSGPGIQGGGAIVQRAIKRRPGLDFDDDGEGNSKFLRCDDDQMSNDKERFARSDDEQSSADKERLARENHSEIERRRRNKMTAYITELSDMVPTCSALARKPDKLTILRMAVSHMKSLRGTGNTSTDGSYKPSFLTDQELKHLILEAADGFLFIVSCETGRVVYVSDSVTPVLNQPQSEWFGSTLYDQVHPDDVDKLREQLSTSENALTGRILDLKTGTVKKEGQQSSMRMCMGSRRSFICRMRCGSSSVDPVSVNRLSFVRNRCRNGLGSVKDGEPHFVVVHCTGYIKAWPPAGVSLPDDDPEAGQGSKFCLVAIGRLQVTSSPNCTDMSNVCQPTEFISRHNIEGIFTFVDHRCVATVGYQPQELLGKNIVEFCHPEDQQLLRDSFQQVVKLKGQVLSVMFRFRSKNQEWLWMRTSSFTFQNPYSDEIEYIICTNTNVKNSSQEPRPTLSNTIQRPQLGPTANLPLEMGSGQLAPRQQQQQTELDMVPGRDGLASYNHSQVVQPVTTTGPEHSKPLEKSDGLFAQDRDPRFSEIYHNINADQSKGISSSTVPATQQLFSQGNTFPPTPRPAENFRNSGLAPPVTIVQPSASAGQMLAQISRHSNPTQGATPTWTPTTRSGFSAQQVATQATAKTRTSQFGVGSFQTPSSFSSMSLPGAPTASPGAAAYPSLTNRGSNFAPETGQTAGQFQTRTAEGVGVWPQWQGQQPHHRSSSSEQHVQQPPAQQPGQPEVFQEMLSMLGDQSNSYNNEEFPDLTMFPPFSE

Binder | binding result [2] | other results
W18 (dsDNA) DNA 1: GATCGCCCTACGTGCTGTCTCA DNA 2: TGAGACAGCACGTAGGGCGATC |  | binding result [1]: binds
hPGK1 5'-UT (dsDNA) DNA 1: CTGCCGACGTGCGCTCCGGAG DNA 2: CTCCGGAGCGCACGTCGGCAG | binds | 
hENO1 5'-FS (dsDNA) DNA 1: GGCCACGTGCGCCGCCTGCGCCTGCG DNA 2: CGCAGGCGCAGGCGGCGCACGTGGCC |  | binding result [3]: binds
mLDHA 5'-FS (dsDNA) DNA 1: GTGGGAGCCCAGCGGACGTGCGGGAA DNA 2: TTCCCGCACGTCCGCTGGGCTCCCAC | binds | 
hEPO 5'-FS (dsDNA) DNA 1: GGGGCTGCTGCAGACGTGCGTGTG DNA 2: CACACGCACGTCTGCAGCAGCCCC | binds | 
hEPO 3'-FS (dsDNA) DNA 1: GCCCTACGTGCTGTCTCACACAGCCTGTCTGA DNA 2: TCAGACAGGCTGTGTGAGACAGCACGTAGGGC |  | binding result [4]: binds
hPGK1 5'-FS (dsDNA) DNA 1: GTGAGACGTGCGGCTTCCGTTTG DNA 2: CAAACGGAAGCCGCACGTCTCAC | binds | 
M18 (dsDNA) DNA 1: GATCGCCCTAAAAGCTGTCTCA DNA 2: TGAGACAGCTTTTAGGGCGATC |  | binding result [5]: no binding
mPFKL IVS-1 (dsDNA) DNA 1: CCGGGTAGCTGGCGTACGTGCTGCAG DNA 2: CTGCAGCACGTACGCCAGCTACCCGG | binds | 
hALDA IVS-4 (dsDNA) DNA 1: CTTCACGTGCGGGGACCAGGGACCGT DNA 2: ACGGTCCCTGGTCCCCGCACGTGAAG | binds | 
